Reference: the supplement of paper PMC12764529
± gives the half width of the 95% confidence interval.

Experiments:
[1] = folding stability dG unfold from trypsin proteolysis; higher = more stable
Summary of the method: (§1)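 Designed mini-proteins (under 80 residues, no cysteine) in a PA-tagged cDNA display construct were digested with trypsin and chymotrypsin. Each protease was used at 11 concentrations (threefold dilutions) plus a no-protease condition, followed by sequencing. K50 was inferred by Bayesian fitting of sequencing counts, and unfolding free energy was derived against a sequence-predicted unfolded-state K50 and a shared folded-state K50, per protease or combined. Only designs with AlphaFold2 dimer inter-PAE above 15 were kept.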

[2] = folding stability dG unfold from chymotrypsin proteolysis; higher = more stable
Summary of the method: as §1

[3] = folding stability dG unfold (combined trypsin and chymotrypsin); higher = more stable
Summary of the method: as §1

Row | Sequence | folding stability dG unfold [1] [kcal/mol] | folding stability dG unfold [2] [kcal/mol] | folding stability dG unfold [3] [kcal/mol]
1 | SAGGSAGGSAGGLVLTSTSFTSSNTMVVTTTTLTTNADGSLSTTSTTTTTPVPPPKPGLPSAGGSAGGSAGG [r11_728_JUSTAS] | 0.161 ± 0.042 | 0.509 ± 0.092 | 0.443 ± 0.077
2 | SAGGSAGGSAGGMAASVSPSVSYDPNTPVTNTKYTITTDGGVTPTTVVTPVVTPPPSPALSAGGSAGGSAGG [r7_413_JUSTAS] | -0.148 ± 0.16 | 0.149 ± 0.11 | 0.198 ± 0.17
3 | SAGGSAGGSAGGMEIEKNENGELIIKFKSKEEAEKAIEELKKKGYKVELNEDGYLIIKPSAGGSAGGSAGGS [r10_1027_TrROS_Hall] | 3.34 ± 0.16 | 4.07 ± 0.14 | 3.96 ± 0.13
4 | SAGGSAGGSAGGMEIIEKEETLDEETLKKLEEEGVPKSEATVKVTEVIYKEEYPEEGLKSAGGSAGGSAGGS [r10_1149_JUSTAS] | 0.359 ± 0.072 | -0.692 ± 0.28 | -0.137 ± 0.34
5 | SAGGSAGGSAGGMEIREVEVTFVPPDGTTTTRKVLATSEEEAKAILEEELPPDWEIILRSAGGSAGGSAGGS [r10_145_JUSTAS] | -0.122 ± 0.11 | 0.831 ± 0.034 | 0.55 ± 0.082
6 | SAGGSAGGSAGGMEKVTEVKPVATLPNGTVVTETLVTYTAPNGPEIGEEVVLTEDPVPKSAGGSAGGSAGGS [r10_941_JUSTAS] | -0.942 ± 0.22 | -0.408 ± 0.2 | -0.455 ± 0.15
7 | SAGGSAGGSAGGMELELTFATPEQAVEYAERFERLGYEVEVEYYPETGLVRVRVRLYPEESAGGSAGGSAGG [r7_623_TrMRF] | 3.97 ± 0.11 | 3.6 ± 0.072 | 3.76 ± 0.074
8 | SAGGSAGGSAGGMEVKTVEDPKGLTVEVSPPVGTATTVYGDETVTHTLSPSATVALEPASAGGSAGGSAGGS [r10_637_JUSTAS] | -0.0233 ± 0.042 | 0.435 ± 0.033 | 0.31 ± 0.1
9 | SAGGSAGGSAGGMEYSISNVTTETFPEGNKTVTVETYTFDDGGTITVTKENGKVLEVNPKSAGGSAGGSAGG [r7_552_JUSTAS] | -1.57 ± 0.56 | 0.586 ± 0.062 | 0.135 ± 0.11
10 | SAGGSAGGSAGGMFVRIEVDGKTILLEADSLEEALAAIRALLPPGEKVKVELVSEEELKSAGGSAGGSAGGS [r10_1167_TrROS_Hall] | 2.44 ± 0.084 | 3.04 ± 0.068 | 2.85 ± 0.047
11 | SAGGSAGGSAGGMIKTEDGYEVEIKIEVEEIPLPEGMSEEEKEKLKKIRIIRIEIKVTKKSAGGSAGGSAGG [r7_324_TrROS_Hall] | 1.67 ± 0.12 | 2.5 ± 0.33 | 2.26 ± 0.36
12 | SAGGSAGGSAGGMILVENPSLNESTVLSKDTPISSFKVPSDNSKVRIIIIYPSNSFVVISSAGGSAGGSAGG [r7_763_JUSTAS] | 1.85 ± 0.073 | 1.55 ± 0.14 | 1.71 ± 0.088
13 | SAGGSAGGSAGGMIRIENPGNGEPRPIKPNDLEDILDNFPGPMRIETGGGEKEVPAKDISAGGSAGGSAGGS [r10_839_TrROS] | -0.528 ± 0.13 | 0.052 ± 0.079 | -0.0618 ± 0.21
14 | SAGGSAGGSAGGMIRIVNEETGEEIEISPEELEELLAKSDKPVRIEVDGKVIPLDAKDLSAGGSAGGSAGGS [r10_839_TrROS_Hall] | 0.85 ± 0.03 | -0.268 ± 0.054 | 0.352 ± 0.091
15 | SAGGSAGGSAGGMITVEYDPSRPVYTVTVTDPTTGKTTVIDVPRDDLEQALALAEALLKSAGGSAGGSAGGS [r10_1117_JUSTAS] | 0.647 ± 0.046 | 1.95 ± 0.03 | 1.67 ± 0.064
16 | SAGGSAGGSAGGMKITLTVPSEEEIEALTPPDAKITEIKKIGKDPVKGLPYYEVVLDPSSAGGSAGGSAGGS [r10_256_JUSTAS] | -1.42 ± 0.44 | 0.411 ± 0.033 | 0.0912 ± 0.14
17 | SAGGSAGGSAGGMKKGQKFKPVKKVKLRFKVKVKVKVGGKEYEFEAEVELEVEFYVLEDSAGGSAGGSAGGS [r10_758_TrROS_Hall] | 2.55 ± 0.2 | 4.41 ± 0.17 | 3.68 ± 0.25
18 | SAGGSAGGSAGGMKKPILLPGETEEDVLERIKKLPKDYKVTIEKLDDDKLLVTITSPKLGSAGGSAGGSAGG [r7_662_JUSTAS] | 0.877 ± 0.14 | -0.5 ± 0.51 | 0.58 ± 0.33
19 | SAGGSAGGSAGGMKLDVTIVGDGKVTTLPADSLEDVEETLKKLGLTLKSVDPATGTVTVASAGGSAGGSAGG [r7_726_JUSTAS] | 0.718 ± 0.051 | -0.0786 ± 0.54 | 0.305 ± 0.19
20 | SAGGSAGGSAGGMKTITIKVPSSVSFEEAKKKAEALFPKSIPVKVEYDPKTGTFTVTVESAGGSAGGSAGGS [r10_163_JUSTAS] | 1.77 ± 0.035 | 2.349 ± 0.015 | 2.17 ± 0.046
